Laboratory results published in the supplement of paper PMC10724198.
± gives the standard deviation of the averaged measurements.

Tested on: Saccharomyces cerevisiae
Experiment: protein stability index of tFT-peptide fusion (C-terminal peptide) (PSI (0-1 scale)); higher = more stable (slower turnover)
Conditions: genetic background: wild type; temperature: 30 C
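Further: PSI is a weighted mean of sequencing reads over stability bins, variants kept only with over 10 reads, mCherry proximal and sfGFP distal, peptide attached via GGGS linker.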

Row | Sequence | protein stability index
1 | TTSDSVVFWTLH | 0.719 ± 0.0074
2 | TTSGCARLSHMV | 0.709 ± 0.086
3 | TTSPRNMIIYYR | 0.627 ± 0.037
4 | TTYFLASSEWAG | 0.7739 ± 0.003
5 | TVGSPTPRSSAP | 0.707 ± 0.0098
6 | TVLRPVLCCFFV | 0.698 ± 0.015
7 | TVLSSQKPNNDR | 0.652 ± 0.023
8 | TVPESGSIGERK | 0.672 ± 0.03
9 | TVPGTARGQRPP | 0.629 ± 0.03
10 | TVRFTHQRNTVK | 0.689 ± 0.037
11 | TVRIGKYTGNGV | 0.738 ± 0.017
12 | TVSAPLFFPLNW | 0.663 ± 0.034
13 | TVTSTLKKHKRG | 0.669 ± 0.034
14 | TVYTPGVFVKTV | 0.562 ± 0.044
15 | TWIGRLGAGLPF | 0.779 ± 0.074
16 | TWSLYFSCRLFW | 0.54 ± 0.055
17 | TWVVPSASWLVF | 0.598 ± 0.009
18 | TYGPSLPVHAVT | 0.686 ± 0.012
19 | TYPMGVVLVESG | 0.498 ± 0.011
20 | TYQRTHKTATQF | 0.681 ± 0.073
21 | TYRLPLLAPAPR | 0.688 ± 0.0097
22 | TYSCLKIVIPRT | 0.664 ± 0.018
23 | VAAASPLFSRID | 0.712 ± 0.014
24 | VADTLVCRGPMA | 0.718 ± 0.023
25 | VALEWGAVRVEG | 0.569 ± 0.088

Row | Sequence | protein stability index
26 | VALPVGQKLRTR | 0.633 ± 0.029
27 | VAPLTPPPSLPF | 0.671 ± 0.014
28 | VAQKARSVRFSI | 0.722 ± 0.1
29 | VARPSGQRVRHA | 0.656 ± 0.085
30 | VARVVGGVGGGW | 0.6553 ± 0.006
31 | VASGLVLFSGGV | 0.655 ± 0.0076
32 | VASGTLGWWVSA | 0.712 ± 0.018
33 | VAVGAGAGAMGL | 0.656 ± 0.0094
34 | VAYAGIRHDIPQ | 0.68 ± 0.081
35 | VCCMFTAFGVCG | 0.604 ± 0.022
36 | VCGGRQVGWGGW | 0.684 ± 0.045
37 | VCGLTLSVCTFG | 0.567 ± 0.0068
38 | VCKGGRIEYGLQ | 0.666 ± 0.037
39 | VCLCFWSVGSWG | 0.543 ± 0.011
40 | VCLCGGLGWVLF | 0.634 ± 0.029
41 | VCVACLRYPTFS | 0.6767 ± 0.0031
42 | VCWFMWSSVYGE | 0.527 ± 0.051
43 | VDCEECSFQFQM | 0.586 ± 0.15
44 | VDCGPLSIEGGR | 0.649 ± 0.018
45 | VDLLGWVSESRC | 0.743 ± 0.089
46 | VDREGFTVLGRV | 0.657 ± 0.021
47 | VDSLETDVLKYL | 0.665 ± 0.011
48 | VDSLFGSRVLRL | 0.727 ± 0.097
49 | VEDGQGEYRRWV | 0.606 ± 0.049
50 | VEGINSQERLGV | 0.724 ± 0.07

Row | Sequence | protein stability index
51 | VEHHSKQIEKGR | 0.681 ± 0.053
52 | VELCLREKQIQL | 0.6749 ± 0.0039
53 | VELFSYGHHCRV | 0.658 ± 0.011
54 | VELSVVHMGHTA | 0.722 ± 0.0073
55 | VESRVVGGCGDW | 0.625 ± 0.03
56 | VEVGAWMVGCSE | 0.6113 ± 0.0012
57 | VEWCARGRVRRA | 0.757 ± 0.045
58 | VEWLQLERDPLV | 0.741 ± 0.033
59 | VEYGRLPRGEEG | 0.645 ± 0.13
60 | VFADHPSMHILS | 0.72 ± 0.021
61 | VFAGGCRLYCFR | 0.624 ± 0.063
62 | VFALSSVAIRRS | 0.64 ± 0.032
63 | VFAWFSGGARLT | 0.717 ± 0.0076
64 | VFCFGVRSVFLR | 0.54 ± 0.053
65 | VFCLGTRSWGLF | 0.6997 ± 0.0042
66 | VFFCALCRLWLG | 0.5 ± 0.029
67 | VFGGSLICVFRV | 0.567 ± 0.025
68 | VFLASFLVCPIS | 0.662 ± 0.057
69 | VFLSLLYWSPIG | 0.643 ± 0.038
70 | VFLTLDVFPSSP | 0.647 ± 0.17
71 | VFPPPLPVRRCP | 0.6551 ± 0.0031
72 | VFPRVFGFGVCI | 0.716 ± 0.054
73 | VFQRFLLFTISP | 0.61 ± 0.014
74 | VFRSGGNQDIKV | 0.648 ± 0.015
75 | VFSAVIFFDCVQ | 0.629 ± 0.014

Row | Sequence | protein stability index
76 | VFSGGTVRWVGG | 0.702 ± 0.023
77 | VFWVFDGFEGFI | 0.825 ± 0.022
78 | VGAGGAWSGCGP | 0.675 ± 0.046
79 | VGAVRVAVGVGG | 0.566 ± 0.0096
80 | VGAWGCGMWVVG | 0.645 ± 0.024
81 | VGCWATGVGGPS | 0.706 ± 0.038
82 | VGDGLGGGGQGG | 0.664 ± 0.056
83 | VGDGQVWGGQGG | 0.669 ± 0.063
84 | VGEGLGWGGQGG | 0.712 ± 0.062
85 | VGERVSRRIQTR | 0.699 ± 0.052
86 | VGESGEGVVMGE | 0.677 ± 0.08
87 | VGFVYLTSAQVW | 0.527 ± 0.012
88 | VGGAAVVAGGGV | 0.695 ± 0.031
89 | VGGACGLSGGLV | 0.652 ± 0.062
90 | VGGAVGAGGGGG | 0.649 ± 0.032
91 | VGGAVVWVGLVR | 0.55 ± 0.031
92 | VGGEGGLGVRPR | 0.662 ± 0.033
93 | VGGEGVGVGGEV | 0.616 ± 0.018
94 | VGGFVRGRVWCS | 0.696 ± 0.012
95 | VGGGFSSVVWLW | 0.658 ± 0.043
96 | VGGGGGVSLGGR | 0.655 ± 0.087
97 | VGGLAFSTSSIW | 0.809 ± 0.11
98 | VGGMGAEGRGGK | 0.721 ± 0.009
99 | VGGRGLVWVWGG | 0.631 ± 0.059
100 | VGGSERVWVKSL | 0.537 ± 0.043

Row | Sequence | protein stability index
101 | VGGVWVDVMGFC | 0.793 ± 0.16
102 | VGILHCELVDVS | 0.735 ± 0.17
103 | VGIPKEADKGGF | 0.704 ± 0.035
104 | VGLGVLWVMGKV | 0.667 ± 0.082
105 | VGLTNSHTHVRR | 0.767 ± 0.019
106 | VGNSLRCRGGWR | 0.628 ± 0.069
107 | VGPFSSSRIGTS | 0.6003 ± 0.0019
108 | VGPGVLVLGVGA | 0.68 ± 0.035
109 | VGPRFAYLDVAA | 0.5644 ± 0.0031
110 | VGPSGLIRCSFC | 0.712 ± 0.029
111 | VGRAGMPGSAES | 0.66 ± 0.022
112 | VGRARRKGGGVG | 0.6384 ± 0.0024
113 | VGRGWSSGGGGD | 0.682 ± 0.023
114 | VGRSRNGAQSNR | 0.65 ± 0.015
115 | VGSAENQHTGRM | 0.678 ± 0.018
116 | VGSSRWRHVGRR | 0.6742 ± 0.0063
117 | VGSVWGDCLGYL | 0.701 ± 0.049
118 | VGTPPSEVGVLA | 0.628 ± 0.035
119 | VGVLLGPVWFSV | 0.684 ± 0.042
120 | VGVPAGQRRLAS | 0.718 ± 0.089
121 | VGVRCCPRLRFG | 0.695 ± 0.061
122 | VGVSEVGRGWAT | 0.71 ± 0.062
123 | VGVSFSFGSIFL | 0.687 ± 0.022
124 | VGVWAGVVLLGG | 0.825 ± 0.18
125 | VGWQGRWWLWGG | 0.568 ± 0.03

Row | Sequence | protein stability index
126 | VGWSWTSWTKGD | 0.661 ± 0.021
127 | VHAGVLTMADPT | 0.653 ± 0.05
128 | VHIVTLGGVLSF | 0.608 ± 0.0074
129 | VHRRRVSVGGGV | 0.69044 ± 0.00032
130 | VIACTFLSCSFS | 0.531 ± 0.02
131 | VIGEWWPVSGQH | 0.718 ± 0.014
132 | VIISDPNKDTRL | 0.645 ± 0.066
133 | VILTAISPAFSV | 0.647 ± 0.013
134 | VIQCIGANGAII | 0.645 ± 0.052
135 | VIRQVKFDRKCS | 0.681 ± 0.068
136 | VISKIAIKAKER | 0.665 ± 0.047
137 | VKIYPSHGKVRD | 0.6901 ± 0.00096
138 | VKKVSSVGGREG | 0.643 ± 0.1
139 | VKLEEKNTINKV | 0.668 ± 0.1
140 | VKSGSTALRVNS | 0.607 ± 0.051
141 | VKSQRISVMIKK | 0.689 ± 0.022
142 | VLCCFLFGFLLV | 0.576 ± 0.011
143 | VLDFRGELGLLG | 0.699 ± 0.025
144 | VLEVLKTGKKIM | 0.692 ± 0.032
145 | VLGGRWDGVGGV | 0.661 ± 0.064
146 | VLGLGVVACWAV | 0.569 ± 0.013
